According to the supplement of paper PMC9112550, “Optimization of the antimicrobial peptide Bac7 by deep mutational scanning” (BMC Biology, 2022):

System: Escherichia coli TOP10
Assay: shrunken log2 fold change of peptide-encoding DNA abundance (4.5 h post-induction vs induction); higher = less antimicrobial activity (less host growth inhibition)
Settings: time post-induction: 4.5 h; library: site-saturation at positions 5, 18, 19, 20
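Note: peptides expressed intracellularly from a pBAD plasmid library in pooled LB shake-flask culture, induced with 0.3% L-arabinose, DNA abundance read by NGS, three biological replicates, DESeq2 with apeglm shrinkage.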

Sequence	shrunken log2 fold change
RRIRRRPPRLPRPRPRPMFHPRP	-0.395
RRIRMRPPRLPRPRPRPACAPRP	0.837
RRIRFRPPRLPRPRPRPGIYPRP	-0.184
RRIRNRPPRLPRPRPRPDTIPRP	-0.145
RRIRIRPPRLPRPRPRPEPQPRP	-0.0904
RRIRWRPPRLPRPRPRPWIAPRP	-0.11
RRIRFRPPRLPRPRPRPQQRPRP	0.061
RRIRWRPPRLPRPRPRPRDKPRP	0.347
RRIRERPPRLPRPRPRPMPIPRP	-0.18
RRIRARPPRLPRPRPRPHQKPRP	-0.0267
RRIRSRPPRLPRPRPRPEHTPRP	0.262
RRIRNRPPRLPRPRPRPQISPRP	0.00683
RRIRQRPPRLPRPRPRPSYSPRP	-0.298
RRIRNRPPRLPRPRPRPTNGPRP	-0.0138
RRIRTRPPRLPRPRPRPYIAPRP	-0.476
RRIRIRPPRLPRPRPRPNNEPRP	-0.597
RRIRIRPPRLPRPRPRPFFSPRP	-0.799
RRIRERPPRLPRPRPRPFAAPRP	0.229
RRIRSRPPRLPRPRPRPLHDPRP	-0.0221
RRIRWRPPRLPRPRPRPMAMPRP	0.00646
RRIRSRPPRLPRPRPRPEAEPRP	0.841
RRIRFRPPRLPRPRPRPEMTPRP	-0.328
RRIRKRPPRLPRPRPRPMNMPRP	-0.0791
RRIRCRPPRLPRPRPRPRQWPRP	-0.108
RRIRDRPPRLPRPRPRPKYNPRP	-0.813

Sequence	shrunken log2 fold change
RRIRTRPPRLPRPRPRPGHTPRP	-0.342
RRIRWRPPRLPRPRPRPGENPRP	-0.0316
RRIRKRPPRLPRPRPRPAWSPRP	0.202
RRIRQRPPRLPRPRPRPQHCPRP	-0.076
RRIRIRPPRLPRPRPRPYGMPRP	-0.354
RRIRIRPPRLPRPRPRPEQVPRP	0.0205
RRIRPRPPRLPRPRPRPGTMPRP	-0.133
RRIRLRPPRLPRPRPRPWTVPRP	-0.176
RRIRTRPPRLPRPRPRPDCKPRP	-0.126
RRIRDRPPRLPRPRPRPCCHPRP	0.0218
RRIRSRPPRLPRPRPRPREWPRP	0.759
RRIRRRPPRLPRPRPRPGSPPRP	0.107
RRIRSRPPRLPRPRPRPSCPPRP	-0.494
RRIRVRPPRLPRPRPRPWEGPRP	0.0112
RRIRFRPPRLPRPRPRPNHGPRP	-0.4
RRIRPRPPRLPRPRPRPECEPRP	0.291
RRIRFRPPRLPRPRPRPVRHPRP	0.0636
RRIRMRPPRLPRPRPRPYSWPRP	-0.0788
RRIRVRPPRLPRPRPRPVECPRP	-0.286
RRIRWRPPRLPRPRPRPFFMPRP	-0.108
RRIRERPPRLPRPRPRPDNWPRP	-0.103
RRIRCRPPRLPRPRPRPLVHPRP	-0.075
RRIRPRPPRLPRPRPRPRRYPRP	-0.0175
RRIRERPPRLPRPRPRPHAHPRP	-0.0467
RRIRCRPPRLPRPRPRPERPPRP	0.777

Sequence	shrunken log2 fold change
RRIRQRPPRLPRPRPRPGQFPRP	0.121
RRIRMRPPRLPRPRPRPACMPRP	0.64
RRIRKRPPRLPRPRPRPLHFPRP	-0.258
RRIRTRPPRLPRPRPRPSQDPRP	-0.355
RRIRQRPPRLPRPRPRPYKMPRP	-0.292
RRIRNRPPRLPRPRPRPFQMPRP	-0.673
RRIRRRPPRLPRPRPRPGGPPRP	0.321
RRIRTRPPRLPRPRPRPFEEPRP	0.00896
RRIRIRPPRLPRPRPRPANSPRP	-0.204
RRIRDRPPRLPRPRPRPIMWPRP	-0.00999
RRIRFRPPRLPRPRPRPIGQPRP	0.00854
RRIRNRPPRLPRPRPRPCEYPRP	-0.0196
RRIRARPPRLPRPRPRPYYMPRP	-0.687
RRIRSRPPRLPRPRPRPHAAPRP	0.331
RRIRRRPPRLPRPRPRPLARPRP	0.153
RRIRFRPPRLPRPRPRPIMPPRP	-0.127
RRIRIRPPRLPRPRPRPITFPRP	-1.1
RRIRERPPRLPRPRPRPNYAPRP	-0.0181
RRIRERPPRLPRPRPRPGIPPRP	-0.421
RRIRARPPRLPRPRPRPQLSPRP	0.329
RRIRNRPPRLPRPRPRPQERPRP	0.0235
RRIRGRPPRLPRPRPRPLDRPRP	0.732
RRIRRRPPRLPRPRPRPPPAPRP	1.28
RRIRRRPPRLPRPRPRPFDQPRP	0.0321
RRIRIRPPRLPRPRPRPCMQPRP	-0.0295
